One experiment relates to mouse adult SVZ NSCs. Description: Gene expression by quantitative real-time PCR in adult SVZ NSCs. It counts as cell-based. Particulars: 48 h after stimulation. On the procedure: Real-time Quantitative PCR. 24 h cells after plating cells were stimulated with 1 activation unit of CD95L-T4. After 48 h RNA was isolated using the RNeasy Mini Kit (Qiagen). Real-time quantitative PCR was carried out using Sybr Green core kits (Eurogentec) and Uracil-N-glycosylase (Eurogentec). For determining CD95L induction after global ischemia, the hippocampi were dissected out and stored in RNAlater reagent (Ambion). RNA was extracted using the RNeasy Mini Kit (Qiagen). Real-time quantitative PCR was carried out using Sybr Green core kits (Eurogentec) and Uracil-N-glycosylase (Eurogentec). Primers used for quantitative real-time PCR were designed using Primer 3 software (http://fokker.wi.mit.edu/cgi-bin/primer3/primer3_www.cgi).
A general note: Quantitative PCR measures a nucleic acid by following its amplification.

The subject of another experiment is hippocampal NSCs. Description: β-III-tubulin expression in hippocampal neural progenitor cells. It counts as cell-based, mouse. Conditions: neural progenitors isolated from the HC. On the procedure:
(§1) For staining of intracellular markers, cells were harvested, fixed with 4% PFA for 10 min on ice, washed and permeabilized using 0.1% Saponin (Sigma-Aldrich) in PBS with 10% FCS (SAP). Cells were incubated with primary antibody or isotype for 30 min on ice. Cells were washed three time with SAP and incubated with secondary antibody for 30 min on ice. Cells were washed again three times with SAP and analysed. Antibodies used were: anti β-III-tubulin (Chemicon) 1:100, anti GFAP (Chemicon) 1:100 and isotype mouse IgG1 (Sigma) 1:20. Secondary antibody was goat anti-mouse PE 1:100 (Dianova). To quantify DNA fragmentation, cells detached with trypsin were centrifuged, washed and fixed with 70% ethanol at −20° C. for 1 h. Fixed cells were resuspended in a hypotonic lysis buffer (0.1% sodium citrate and 0.1% Triton X-100) containing […] of propidium iodide, incubated at 4° C. overnight. After final washings, all samples were analysed using a FACS-Calibur (Becton Dickinson) and CellQuest Software (Becton Dickinson).
(§2) Mouse adult neural stem cell culture. NSCs were isolated as previously described^30. Briefly, 6 week old female C57BL6 mice were sacrificied and tissue from hippocampus, SVZ and spinal cord was dissected out. […]

In another experiment the test system is SVZ NSCs. Description: β-III-tubulin expression in adult SVZ neural progenitor cells (flow cytometry). It counts as cell-based, mouse. Particulars: SVZ progenitors, in the presence of growth factors. The text has this: Lentiviral infections. SVZ NSCs were infected with the lentiviral vector pEIGW and pEIGW-GSK3βS9A at a multiplicity of infection (MOI) of 5. The plasmids were constructed by replacing the eGFP sequence between the EF1α promotor and the WPRE element in pWPTS-eGFP with the IRES-eGFP cassette form pIRES2-eGFP (Clontech, Germany). The recombinant lentiviral vector pEIGW-GSK3βS9A was constructed using pcDNA3 HA-GSK3βS9A. This vector encodes a constitutively active GSK3β mutant containing a serine-to-alanine substitution at residue 9 (GSK3βS9A). Expression of all transgenes was confirmed in infected cells by FACS analysis of GFP expression. The percentage of infected cells was 70-90%.
siRNA. […] 48 h later pp60 src knockdown was assessed by Western Blot. At the same time, cells were stimulated with CD95L-T4 and analysed after 48 h for β-III-tubulin positive cells.
For staining of intracellular markers, cells were harvested, fixed with 4% PFA for 10 min on ice, washed and permeabilized using 0.1% Saponin (Sigma-Aldrich) in PBS with 10% FCS (SAP). […] Cells were washed again three times with SAP and analysed. […] To quantify DNA fragmentation, cells detached with trypsin were centrifuged, washed and fixed with 70% ethanol at −20° C. for 1 h. […] After final washings, all samples were analysed using a FACS-Calibur (Becton Dickinson) and CellQuest Software (Becton Dickinson). […]

The test system of experiment [1] is human neural progenitor cells. Description: Neuronal differentiation (β-III-tubulin) of human neural progenitor cells after growth factor removal. It counts as cell-based. On the procedure:
Immunostainings. Immunohistochemistry and Immunocytochemistry were performed as previously described. Primary antibodies used were anti GFP (chicken) (Ayes Labs) 1:1000, anti NeuN (mouse), (Chemicon) 1:200, anti β-III-tubulin (mouse) (Chemicon 1:200), anti GFAP (mouse) (Chemicon 1:200), active-β-Catenin (mouse) (P-Ser37 or P-Thr41; 1:800) (Upstate), phosphorylated GSK3β (P-Ser9-GSK3β, 1:1000). The mouse Pax6 antibody developed by A. Kawakami was obtained from the Developmental Studies Hybridoma Bank developed under auspices of the NICHD and maintained by The University of Iowa, Department of Biological Sciences, Iowa City, Iowa 52242. Secondary antibodies used were goat anti-rabbit alexa 488 (Molecular Probes) 1:500, goat anti-mouse rhodamine X (Dianova) 1:200, Dapi (Sigma) 1:3000, donkey anti-chicken FITC (Dianova) 1:200.
Human neural progenitor generation and culture. The human ES cell line H9.2 was cultivated on mitotically inactivated mouse embryonic fibroblasts (MEFs) in Knockout Dulbecco's Modified Eagle Medium (KO-DMEM, Gibco) containing 20% Knockout Serum Replacement, 1% non-essential amino acids, 1 mM I-glutamine, 0.1 mM β-mercaptoethanol (all from Gibco), and 4 ng/ml human basic fibroblast growth factor (FGF-2, Invitrogen). Cells were routinely passaged every four days by treatment with 100 units collagenase IV (Gibco) for one hour. […]

The next experiment relates to neural progenitor cells. Description: GFAP expression (glial differentiation) in neural progenitor cells. In kind it is cell-based, mouse. Particulars: data not shown. On the procedure:
as §1, §2

B1: CD95L: the ligand for CD95 (APO-1/Fas) (protein, listed as Homo sapiens)
chain: MQQPFNYPYPQIYWVDSSASSPWAPPGTVLPCPTSVPRRPGQRRPPPPPPPPPLPPPPPPPPLPPLPLPPLKKRGNHSTGLCLLVMFFMVLVALVGLGLGMFQLFHLQKELAELRESTSQMHTASSLEKQIGHPSPPPEKKELRKVAHLTGKSNSRSMPLEWEDTYGIVLLSGVKYKKGGLVINETGLYFVYSKVYFRGQSCNNLPLSHKVYMRNSKYPQDLVMMEGKMMSYCTTGQMWARSSYLGAVFNLTSADHLYVNVSELSLVNFEESQTFFGLYKL
modifications: CHAIN (1)..(281) This feature is the amino acid sequence for CD95L protein. CD95L is a ligand for CD95. CD95 is APO-1/Fas and a member of the tumor necrosis factor receptor superfamily.
For B1, the “Neurogenin (Ngn1) expression” value in the experiment on mouse adult SVZ NSCs is given as “much higher”. Besides, the β-III-tubulin expression entry is on record as “increase in β-III-tubulin expression” in the experiment on hippocampal NSCs and “greatly increased β-III-tubulin expression” with SVZ NSCs. The “number of neurons / β-III-tubulin positive cells” value in experiment [1] is reported as “strikingly increased number of neurons”. Moreover, in the experiment with neural progenitor cells, the GFAP expression entry is reported as “did not change GFAP expression”.

(Values after US20110300113A1, “Death Receptor CD95 Controls Neurogenesis of Adult Neural Stem Cells in Vivo and in Vitro” (DEUTSCHES KREBSFORSCHUNGSZENTRUM, priority 2006, published 2011).)
